Laboratory results as given in article PMC12752606, “METTL10‐Mediated PIAS3 Methylation Links Purine Metabolism to Gastric Cancer Progression” (Advanced Science, 2025).

Biological target: T1, GST-PIAS3 (UniProt Q9Y6X2 1-628)
T1 construct: PIAS3; also called bacterially expressed PIAS3; source: E. coli BL21, purified (Glutathione Agarose Resin)
T1 sequence (looked up): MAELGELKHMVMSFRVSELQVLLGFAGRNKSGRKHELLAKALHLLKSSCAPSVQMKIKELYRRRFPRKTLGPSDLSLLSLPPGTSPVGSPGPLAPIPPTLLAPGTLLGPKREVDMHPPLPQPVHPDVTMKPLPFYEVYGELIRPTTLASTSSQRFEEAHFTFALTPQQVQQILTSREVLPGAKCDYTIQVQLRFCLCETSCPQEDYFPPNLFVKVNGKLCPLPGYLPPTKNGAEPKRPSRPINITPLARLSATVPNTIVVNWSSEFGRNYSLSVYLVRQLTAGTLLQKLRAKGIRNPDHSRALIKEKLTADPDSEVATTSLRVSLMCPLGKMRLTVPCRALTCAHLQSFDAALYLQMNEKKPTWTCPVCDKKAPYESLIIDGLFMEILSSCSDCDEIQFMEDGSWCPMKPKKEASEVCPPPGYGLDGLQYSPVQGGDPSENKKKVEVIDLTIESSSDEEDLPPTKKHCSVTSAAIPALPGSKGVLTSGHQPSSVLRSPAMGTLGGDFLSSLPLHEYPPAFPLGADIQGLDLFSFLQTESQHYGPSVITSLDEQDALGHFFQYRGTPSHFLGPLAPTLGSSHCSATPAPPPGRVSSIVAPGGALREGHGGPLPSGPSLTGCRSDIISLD
Assay: pull-down; purified GST or GST-PIAS3 incubated with purified His-METTL10 in 25 mM Tris-HCl pH 8.0, 150 mM NaCl, 4 °C overnight; Glutathione Agarose Resin; eluted with 10 mM reduced glutathione
Conditions: both partners purified

binding result: binds
B1: His-METTL10 (enzyme)
chain: not shown
notes: METTL10 (EEF1AKMT2); also called bacterially expressed METTL10; source: E. coli BL21, purified (Ni-NTA resin)
